Measurements published in US20130142806A1 (Eli Lilly, published 2013).
Square brackets hold non-standard residues; d marks the D form. pGlu = O=C1CC[C@@H](C(=O)O)N1

Legend:
pE3-16 (Pyr-…-biotin) = target: T1, pE3-16 (Pyr-…-biotin) (human); assay: SPR (BIACORE 2000), antibody captured, peptide injected
T1 construct: also called pE3-16B
T1 peptide: [pGlu]FRHDSGYEVHHQK-biotin

Aβ1-40 = target: T2, Aβ1-40 (UniProt P05067 672-711); assay: as above
T2 construct: domain: Aβ1-40; The numbers 1-40 count on the Aβ peptide, not on the APP precursor
T2 sequence (P05067 672-711 limits assumed): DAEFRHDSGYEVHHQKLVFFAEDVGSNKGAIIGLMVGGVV

B1: Antibody II (R17L) (antibody, human IgG1, kappa, V domains shown)
VH: QVQLVQSGAEVKKPGSSVKVSCKASGYTFTRYYINWVRQAPGQGLEWMGWINPGSGNTKYNEKFKGRVTITADESTSTAYMELSSLRSEDTAVYYCAREGTTVYWGQGTTVTVSS
VL: DIVMTQTPLSLSVTPGQPASISCKSSQSLLYSRGKTYLNWLLQKPGQSPQLLIYAVSKLDSGVPDRFSGSGSGTDFTLKISRVEAEDVGVYYCVQGTHYPFTFGQGTKLEIKR
notes: Human engineered anti-N3pGlu Aβ monoclonal antibody
binding result (pE3-16 (Pyr-…-biotin)): binds
binding result (Aβ1-40): no binding

B2: Antibody VII (mE8c) (antibody, mouse IgG2a, kappa, V domains shown)
VH: EVQLLESGPELVKPGASVKISCKASGYTFTDYYINWVKQRPGQGLEWIGWINPGSGNTKYNEKFKGKATLTVDTSSSTAYMQLSSLTSEDSAVYFCTREGETVYWGQGTTLTVSS
VL: NIVLTQTPLTLSVTIGQPASISCKSSQSLLYSRGKTYLNWLLQRPGQSPKRLIYAVSKLDSGVPDRFIGSGSGTDFTLKISRVEAEDLGVYYCVQGTHYPFTFGSGTKLEIKR
notes: Mouse IgG2a isotype of the mE8 clone; also called mE8c - IgG2a; parental mouse antibody
binding result (pE3-16 (Pyr-…-biotin)): binds
binding result (Aβ1-40): no binding

B3: Antibody I (B12L) (antibody, human IgG1, kappa, V domains shown)
VH: QVQLVQSGAEVKKPGSSVKVSCKASGYDFTRYYINWVRQAPGQGLEWMGWINPGSGNTKYNEKFKGRVTITADESTSTAYMELSSLRSEDTAVYYCAREGITVYWGQGTTVTVSS
VL: DIVMTQTPLSLSVTPGQPASISCKSSQSLLYSRGKTYLNWLLQKPGQSPQLLIYAVSKLDSGVPDRFSGSGSGTDFTLKISRVEAEDVGVYYCVQGTHYPFTFGQGTKLEIKR
notes: as for B1
binding result (pE3-16 (Pyr-…-biotin)): binds
binding result (Aβ1-40): no binding
